This passage reports residual activity (antibody recovered after 15 alkali treatments, relative to the initial binding) and residual activity relative to Cytiva's product (Capto L) results from patent US20230356187A1.

For experiment [1], the target named is purified antibody (KBIO, Korea). Kind of experiment: 1 ml resin column; purified antibody bound, eluted and measured after 15 cycles of 0.3 M NaOH (15 min each).
For experiment [2] the target is unchanged. Description: 1 ml resin column; purified antibody bound, eluted and measured after 15 cycles of 0.3 M NaOH; reference Capto L.

B1: variant protein 4mBF (mBF tetramer) (designed binder)
chain: MPKEEVTIKANLIFADGKTQTAEFKGTFGEATAEAYRYADLLAPENGKYTVDVADKGYTLNIKFAGKEKTPEEMPKEEVTIKANLIFADGKTQTAEFKGTFGEATAEAYRYADLLAPENGKYTVDVADKGYTLNIKFAGKEKTPEEMPKEEVTIKANLIFADGKTQTAEFKGTFGEATAEAYRYADLLAPENGKYTVDVADKGYTLNIKFAGKEKTPEEMPKEEVTIKANLIFADGKTQTAEFKGTFGEATAEAYRYADLLAPENGKYTVDVADKGYTLNIKFAGKEKTPEE
In turn, B1 came in with a residual activity (antibody recovered after 15 alkali treatments, relative to the initial binding) in experiment [1] of 43.5%. Also, in experiment [2], the residual activity relative to Cytiva's product (Capto L) was determined as 1.4 times.
